Measured values reported in US20260209352A1 (Adimab, published 2026).
Residue numbers refer to the chain shown, from its start.

B1: ADI-42594 (antibody, V domains shown)
VH: QVQLVQSGAEVKKPGASVKVSCKASGFNIKDYYMHWVRQAPGQRLEWIGWIDLENANTVYDAKFQGRVTITRDTSASTAYMELSSLRSEDTAVYYCARDAYGRYFYDVWGQGTLVTVSS
VL: DIVMTQSPDSLAVSLGERATINCKSSQSLLNARTGKNYLAWYQQKPGQPPKLLIYWASTRESGVPDRFSGSGSGTDFTLTISSLQAEDVAVYYCKQSYFRRTFGGGTKVEIK
notes: also called Ab1
B2: ADI-45959 (antibody, V domains shown)
VH: B1 VH
VL: B1 VL with T5S, E61S, K95V
notes: also called Ab13
B3: ADI-45975 (antibody, V domains shown)
VH: B1 VH with R103Q
VL: B1 VL with G35R
notes: also called Ab11
B4: ADI-46378 (antibody, V domains shown)
VH: B1 VH with T78A
VL: B1 VL with G35R, Q48R, K95V
notes: also called Ab40
B5: ADI-46366 (antibody, V domains shown)
VH: B1 VH with R103Q
VL: B1 VL with K95V
notes: also called Ab50
B6: ADI-46359 (antibody, V domains shown)
VH: B1 VH with R103Q
VL: B1 VL with K95T
notes: also called Ab42
B7: ADI-46357 (antibody, V domains shown)
VH: B1 VH
VL: B1 VL with K95A
notes: also called Ab30
B8: ADI-42596 (antibody, V domains shown)
VH: B1 VH
VL: B1 VL with G35R
notes: also called Ab2

What was measured:
[1] = target: T1, Human CD3 on Human CD3+ Jurkat cells (human, UniProt P07766 23-207); experiment: cell binding hCD3, fold over background
T1 construct: whole, on cells; CD3 complex on cells; also called hCD3
T1 sequence (P07766 23-207): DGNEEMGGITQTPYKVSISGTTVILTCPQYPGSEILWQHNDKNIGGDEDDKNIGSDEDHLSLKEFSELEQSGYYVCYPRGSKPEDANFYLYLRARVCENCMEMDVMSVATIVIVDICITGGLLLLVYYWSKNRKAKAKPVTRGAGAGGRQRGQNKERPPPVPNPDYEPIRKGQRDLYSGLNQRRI

[2] = target: Human CD3εδ-Fc (human) (UniProt P04234); experiment: KD of scFv-Fc or IgG on human CD3εδ-Fc; instrument not given
Sequence of Human CD3εδ-Fc (human) (chain, as listed by the source mutant, chain 1 of 2): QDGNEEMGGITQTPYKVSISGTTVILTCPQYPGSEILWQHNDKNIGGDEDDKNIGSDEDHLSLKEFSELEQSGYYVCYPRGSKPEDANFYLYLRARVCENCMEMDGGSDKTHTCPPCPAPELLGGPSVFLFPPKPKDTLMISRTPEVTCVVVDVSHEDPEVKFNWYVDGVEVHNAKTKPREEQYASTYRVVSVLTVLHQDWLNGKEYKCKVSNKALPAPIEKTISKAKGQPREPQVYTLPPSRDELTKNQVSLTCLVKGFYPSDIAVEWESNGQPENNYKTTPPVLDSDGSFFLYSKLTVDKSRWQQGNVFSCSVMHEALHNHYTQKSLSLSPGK
Sequence of Human CD3εδ-Fc (human) (P04234 22-105, stated change not applied, chain 2 of 2): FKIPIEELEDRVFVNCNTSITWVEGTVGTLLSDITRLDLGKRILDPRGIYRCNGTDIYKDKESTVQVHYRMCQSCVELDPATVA

[3] = target: Cyno CD3εδ-Fc (cynomolgus) (UniProt Q95LI8); experiment: KD of scFv-Fc or IgG on cyno CD3εδ-Fc; instrument not given
Sequence of Cyno CD3εδ-Fc (cynomolgus) (chain, as listed by the source mutant, chain 1 of 2): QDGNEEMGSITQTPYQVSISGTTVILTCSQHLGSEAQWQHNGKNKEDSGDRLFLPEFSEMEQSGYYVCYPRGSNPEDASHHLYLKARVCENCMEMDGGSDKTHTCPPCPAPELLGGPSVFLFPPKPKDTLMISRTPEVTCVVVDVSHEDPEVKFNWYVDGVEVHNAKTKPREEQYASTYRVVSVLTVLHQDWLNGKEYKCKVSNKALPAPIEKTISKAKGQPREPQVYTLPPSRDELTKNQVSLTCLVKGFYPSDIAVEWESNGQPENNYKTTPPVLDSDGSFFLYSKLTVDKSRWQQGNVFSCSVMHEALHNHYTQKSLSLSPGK
Sequence of Cyno CD3εδ-Fc (cynomolgus) (Q95LI8 22-105, stated change not applied, chain 2 of 2): as the sequence (P04234 22-105, stated change not applied, chain 2 of 2) above, with I5V, N15K, I20V, S32T, D33N, I34N, T64A, S74N, V83L counted along it

[4] = target: Human CD3εδ-Fc (human) (UniProt P04234); experiment: Biacore SPR, monovalent KD, biotinylated human CD3εδ-Fc
[5] = target: T2, Cynomolgus CD3 on Cyno CD3+ Jurkat cells (cynomolgus, UniProt Q95LI5 22-198); experiment: cell binding cCD3, fold over background
T2 construct: whole, on cells; CD3 on cells; also called cCD3
T2 sequence (Q95LI5 22-198): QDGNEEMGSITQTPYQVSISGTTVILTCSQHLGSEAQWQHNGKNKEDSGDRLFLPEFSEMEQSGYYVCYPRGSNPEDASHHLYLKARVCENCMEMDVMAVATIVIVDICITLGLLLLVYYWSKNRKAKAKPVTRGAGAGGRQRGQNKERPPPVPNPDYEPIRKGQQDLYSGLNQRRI

[6] = target: T2, Cynomolgus CD3 on Cyno CD3+ Jurkat cells; experiment: cell binding, cyno CD3+ Jurkat cells
[7] = target: T1, Human CD3 on Human CD3+ Jurkat cells; experiment: cell binding, human CD3+ Jurkat cells
[8] = target: Human CD3εδ-Fc (human) (UniProt P04234); experiment: KD of scFv-Fc or IgG on human CD3εδ-Fc; instrument not given; second row for this clone

| Binder | Cell Binding hCD3 (FOB) [1] | Kd [2] | Kd [3] | Kd [4] | Cell Binding cCD3 (FOB) [5] | Cell Binding Fold Over Background (FOB) [6] | Cell Binding Fold Over Background (FOB) [7] | Kd [8] |
| --- | --- | --- | --- | --- | --- | --- | --- | --- |
| B1 | 36 FOB | 0.2 nM | 2 nM | 0.47 nM | 122 FOB | 16 FOB | 14 FOB |  |
| B2 | 19 FOB | 0.13 nM | 1.7 nM | 0.12 nM | 112 FOB | 30 FOB | 18 FOB |  |
| B3 | 86 FOB | 0.067 nM | 1.4 nM | 0.21 nM | 142 FOB | 17 FOB | 10 FOB |  |
| B4 | 22 FOB | 0.92 nM |  | 0.12 nM | 91 FOB | 30 FOB | 17 FOB |  |
| B5 | 43 FOB | 0.93 nM |  | 0.23 nM | 108 FOB | 32 FOB | 16 FOB |  |
| B6 | 43 FOB | 0.89 nM |  | 0.22 nM | 102 FOB | 28 FOB | 15 FOB |  |
| B7 | 24 FOB | 0.97 nM |  | 0.25 nM | 80 FOB | 20 FOB | 13 FOB |  |
| B8 | 29 FOB | 0.16 nM | 2.4 nM |  | 46 FOB |  |  | 1.1 nM |
